Measured values published in patent US20230025280A1, “PH RESPONSIVE COMPOSITIONS, FORMULATIONS, AND METHODS OF IMAGING A TUMOR” (ONCONANO MEDICINE, INC, priority 2019, published 2023).
Several values for one entry are separate records, joined by “and”; a condition that tells them apart may be missing. Equal values may be shown once.

Test: Phase 1 (1a/1b) pharmacokinetics: plasma concentrations after single IV dose (validated direct fluorescence reader assay), noncompartmental analysis
Format: in vivo, human
Conditions: Phase 1a
Source text: Phase 1 is a single-Principal Investigator, non-randomized, open-label, single-arm, cross-sectional study to evaluate the safety, PK profile, and imaging feasibility of Compound 1 in patients with solid cancers who require surgical excision. The main purpose of this study was to investigate the safety, PK, and feasibility of Compound 1 as an intra-operative optical imaging agent to detect tumors and metastatic lymph nodes in solid cancers. The study was intended to investigate the optimal dose range of Compound 1 for an adequate TBR and CNR of fluorescence obtained intraoperatively at 24 (±8) hours post dosing and with ex vivo specimens using ICG compatible cameras and imaging devices.
Phase 1 enrolled 30 patients with solid cancers (HNSCC, breast cancer, esophageal cancer, or colorectal cancer) who have a biopsy-confirmed diagnosis of respective tumor types and are scheduled to undergo surgical resection of the tumor. The study design included a standard 3+3 design for the dose-escalation portion (Phase 1a; N=18 maximum) followed by a dose-expansion portion (Phase 1b; N=15). All patients received a single I.V. dose of Compound 1, followed by routine surgery approximately 24 hours after infusion of Compound 1.
Phase 1a was a dose-finding study performed in 5 cohorts of 3 patients each. The dose levels evaluated were […], and 1.2 mg/kg, in this sequence. Inter-cohort dose escalation took place after the last patient in the previous cohort completed the Day 10 safety assessment. Safety, PK, and imaging feasibility were evaluated in both the Phase 1a and 1b portions of the study. Patient safety is assessed during the study and for up to 10 days post-dose.
Study design: Single Compound 1 IV dose was administered as a 1-5 minute IV infusion to patients in five cohorts (0.1, 0.3, 0.5, 0.8, and 1.2 mg/kg) with three patients per cohort in Phase 1a and 15 patients at a dose of 1.2 mg/kg in Phase 1b. Patient demographic information including tumor types is presented in Table 4 and 5 for Phase 1a and Table 5 for Phase 1b. Intertek Pharmaceutical Services (San Diego, Calif.) determined Compound 1 plasma concentrations using a validated direct fluorescence reader assay. Pacific BioDevelopment (Davis, Calif.) performed the PK analysis.
Sample collection: Blood samples were collected prior to infusion and at 10 minutes and 0.5, 1, 3, 8, 24, 48, 72, and 240 hours after infusion.
Analysis: Plasma concentration versus time profiles were generated for each patient. Pharmacokinetic parameters were estimated using Phoenix WinNonlin (version 8.0). According to SOP, concentrations reported as BQL were set to 0 except for the 0.5 h sample for subject #ON1102, which was set to LLOQ/2 ([…] value used in parameter calculations) and the 24 and 48 h samples.
If the coefficient of determination for the terminal slope estimation was less than 0.8, T1/2 was not reported (NR). AUC extrapolated to infinity is not reported for any data set because in all cases the % extrapolated AUC was greater than 20% and thus the AUCinf estimate would not be reliable. The concentration at 10 minutes, the first time point measured (C10m), was also reported for each patient.
The area under the plasma concentration versus time curves from dosing to the last time point with a measurable concentration (AUClast) was estimated by the linear trapezoid method. The last three or more time points were used to estimate the elimination rate constant (λz) which was used to estimate the terminal-phase half-life (T1/2) and AUC from zero to infinity (AUCINF) from the following equations: […]

[1] = 0.5 mg/kg single IV, individual subject
[2] = 0.8 mg/kg single IV, individual subject
[3] = 1.2 mg/kg single IV, individual subject

PEO90-140-b-P(DBA60-150-r-ICG0-3-r-AMA0-3) [Compound 1]
Cmax [1]: 22700 ng/mL and 17100 ng/mL and 14000 ng/mL | Tmax [1]: 3.00 h and 0.500 h | AUC0-24 hr (0.5 mg/kg single IV, mean): 289 µg·h/mL | AUCall (0.5 mg/kg single IV, mean): 835 µg·h/mL | AUClast (0.5 mg/kg single IV, mean): 410 µg·h/mL | C10 m (0.5 mg/kg single IV, mean): 17.3 µg/mL | Cmax (0.5 mg/kg single IV, mean): 17900 ng/mL | Tmax (0.5 mg/kg single IV, mean): 2.17 h | AUC0-24 hr (0.5 mg/kg single IV, median): 314 µg·h/mL | AUCall (0.5 mg/kg single IV, median): 314 µg·h/mL | AUClast (0.5 mg/kg single IV, median): 160 µg·h/mL | C10 m (0.5 mg/kg single IV, median): 16.2 µg/mL | Cmax (0.5 mg/kg single IV, median): 17100 ng/mL | Tmax (0.5 mg/kg single IV, median): 3.00 h | Plasma Conc (0.500 mg/kg, 0.170 hr, individual subject): 22.0 µg/mL and 16.2 µg/mL and 13.6 µg/mL | Plasma Conc (0.500 mg/kg, 0.170 hr, mean): 17.3 µg/mL | Plasma Conc (0.500 mg/kg, 0.500 hr, individual subject): 16.7 µg/mL and 15.9 µg/mL and 14.0 µg/mL | Plasma Conc (0.500 mg/kg, 0.500 hr, mean): 15.5 µg/mL | Plasma Conc (0.500 mg/kg, 1.00 hr, individual subject): 15.8 µg/mL and 13.8 µg/mL and 12.6 µg/mL | Plasma Conc (0.500 mg/kg, 1.00 hr, mean): 14.1 µg/mL | Plasma Conc (0.500 mg/kg, 3.00 hr, individual subject): 22.7 µg/mL and 17.1 µg/mL and 11.9 µg/mL | Plasma Conc (0.500 mg/kg, 3.00 hr, mean): 17.2 µg/mL | Plasma Conc (0.500 mg/kg, 8.00 hr, individual subject): 19.3 µg/mL and 14.6 µg/mL and 13.9 µg/mL | Plasma Conc (0.500 mg/kg, 8.00 hr, mean): 15.9 µg/mL | Plasma Conc (0.500 mg/kg, 24.0 hr, individual subject): BQL (BQL (<10 μg/mL), set = 0 for PK analysis) (2×) and 12.4 μg/mL | Plasma Conc (0.500 mg/kg, 24.0 hr, mean): 4.13 µg/mL | Plasma Conc (0.500 mg/kg, 48.0 hr, individual subject): BQL (BQL (<10 μg/mL), set = 0 for PK analysis) (2×) and 14.0 μg/mL | Plasma Conc (0.500 mg/kg, 48.0 hr, mean): 4.67 µg/mL | Plasma Conc (0.500 mg/kg, 72.0 hr, individual subject): BQL (BQL (<10 μg/mL), set = 0 for PK analysis) (2×) and 12.0 μg/mL | Plasma Conc (0.500 mg/kg, 72.0 hr, mean): 4.00 µg/mL | Plasma Conc (0.500 mg/kg, 240 hr, individual subject): BQL (BQL (<10 μg/mL), set = 0 for PK analysis) | Plasma Conc (0.500 mg/kg, 240 hr, mean): 0.00 µg/mL | Mean AUC0-24h (0.8 mg/kg): 383 µg·h/mL | Mean C10 (0.8 mg/kg): 19.8 µg/mL | Mean terminal-phase half-life (0.8 mg/kg): 79.0 h | AUC0-24 hr [2]: 416 µg·h/mL and 354 µg·h/mL and 380 µg·h/mL | AUCall [2]: 905 µg·h/mL and 518 µg·h/mL and 1790 µg·h/mL | AUClast [2]: 756 µg·h/mL and 354 µg·h/mL and 927 µg·h/mL | C10 m [2]: 21.7 µg/mL and 19.6 µg/mL and 18.2 µg/mL | Cmax [2]: 23000 ng/mL and 19600 ng/mL and 18200 ng/mL | T1/2 [2]: 74.5 h and 83.4 h | Tmax [2]: 1.00 h and 0.170 h | AUC0-24 hr (0.8 mg/kg single IV, mean): 383 µg·h/mL | AUCall (0.8 mg/kg single IV, mean): 1070 µg·h/mL | AUClast (0.8 mg/kg single IV, mean): 679 µg·h/mL | C10 m (0.8 mg/kg single IV, mean): 19.8 µg/mL | Cmax (0.8 mg/kg single IV, mean): 20300 ng/mL | T1/2 (0.8 mg/kg single IV, mean): 79.0 h | Tmax (0.8 mg/kg single IV, mean): 0.447 h | AUC0-24 hr (0.8 mg/kg single IV, median): 380 µg·h/mL | AUCall (0.8 mg/kg single IV, median): 905 µg·h/mL | AUClast (0.8 mg/kg single IV, median): 756 µg·h/mL | C10 m (0.8 mg/kg single IV, median): 19.6 µg/mL | Cmax (0.8 mg/kg single IV, median): 19600 ng/mL | T1/2 (0.8 mg/kg single IV, median): 79.0 h | Tmax (0.8 mg/kg single IV, median): 0.170 h | Plasma Conc (0.800 mg/kg, 0.170 hr, individual subject): 21.7 µg/mL and 19.6 µg/mL and 18.2 µg/mL | Plasma Conc (0.800 mg/kg, 0.170 hr, mean): 19.8 µg/mL | Plasma Conc (0.800 mg/kg, 0.500 hr, individual subject): 19.3 µg/mL and 17.6 µg/mL and 17.1 µg/mL | Plasma Conc (0.800 mg/kg, 0.500 hr, mean): 18.0 µg/mL | Plasma Conc (0.800 mg/kg, 1.00 hr, individual subject): 23.0 µg/mL and 18.2 µg/mL and 18.0 µg/mL | Plasma Conc (0.800 mg/kg, 1.00 hr, mean): 19.7 µg/mL | Plasma Conc (0.800 mg/kg, 3.00 hr, individual subject): 20.0 µg/mL and 14.4 µg/mL and 17.6 µg/mL | Plasma Conc (0.800 mg/kg, 3.00 hr, mean): 17.3 µg/mL | Plasma Conc (0.800 mg/kg, 8.00 hr, individual subject): 16.7 µg/mL and 15.1 µg/mL and 16.6 µg/mL | Plasma Conc (0.800 mg/kg, 8.00 hr, mean): 16.1 µg/mL | Plasma Conc (0.800 mg/kg, 24.0 hr, individual subject): 16.0 μg/mL and 13.7 μg/mL (2×) | Plasma Conc (0.800 mg/kg, 24.0 hr, mean): 14.5 µg/mL | Plasma Conc (0.800 mg/kg, 48.0 hr, individual subject): 12.4 μg/mL and BQL (BQL (<10 μg/mL), set = 0 for PK analysis) and 10.8 μg/mL | Plasma Conc (0.800 mg/kg, 48.0 hr, mean): 7.73 µg/mL | Plasma Conc (0.800 mg/kg, 72.0 hr, individual subject): BQL (BQL (<10 μg/mL), set = 0 for PK analysis) (2×) and 10.3 μg/mL | Plasma Conc (0.800 mg/kg, 72.0 hr, mean): 3.43 µg/mL | Plasma Conc (0.800 mg/kg, 240 hr, individual subject): BQL (BQL (<10 μg/mL), set = 0 for PK analysis) | Plasma Conc (0.800 mg/kg, 240 hr, mean): 0.00 µg/mL | Mean AUC0-24h (1.2 mg/kg): 495 µg·h/mL | Mean C10 (1.2 mg/kg): 31.7 µg/mL | Mean terminal-phase half-life (1.2 mg/kg): 36.5 h | AUC0-24 hr [3]: 348 µg·h/mL and 563 µg·h/mL and 574 µg·h/mL | AUCall [3]: 348 µg·h/mL and 1160 µg·h/mL and 1020 µg·h/mL | AUClast [3]: 184 µg·h/mL and 970 µg·h/mL and 891 µg·h/mL | C10 m [3]: 28.0 µg/mL and 34.1 µg/mL and 33.0 µg/mL | Cmax [3]: 28000 ng/mL and 34100 ng/mL and 33000 ng/mL | T1/2 [3]: 32.5 h and 46.5 h and 30.6 h | Tmax [3]: 0.170 h
